Measured values as given in patent EP1899377B1 (GLAXO GROUP LIMITED, dated 2012).
Like-named read-outs stand apart in the source and are kept apart here.

Columns and labels:
[1] = target: T1, GST-human NOGO-A56 (human, UniProt Q9NQC3 586-785); assay: SPR (Biacore), GST-human NOGO-A56 immobilised, purified antibody as analyte; single experiment
T1 construct: GST-tagged fusion expressed in E. coli BL21 from pGEX-6P1; also called hNOGO; human NOGO 5+6 GST; not shown: Glutathione S-transferase tag encoded by vector pGEX-6P1 (N-terminal, with vector linker)
T1 sequence: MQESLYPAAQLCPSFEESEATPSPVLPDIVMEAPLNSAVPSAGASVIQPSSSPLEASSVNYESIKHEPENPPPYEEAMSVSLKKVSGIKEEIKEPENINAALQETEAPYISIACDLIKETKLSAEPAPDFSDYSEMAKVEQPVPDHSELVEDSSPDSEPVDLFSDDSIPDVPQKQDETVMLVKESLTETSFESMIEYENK

[2] = target: T1, GST-human NOGO-A56; assay: as above; remark: listed apart in the source
[3] = target: T1, GST-human NOGO-A56; assay: as above; remark: listed apart in the source
[4] = target: T1, GST-human NOGO-A56; assay: SPR off-rate ranking, supernatant from small-scale transient transfection over immobilised GST-human NOGO-A56; single experiment

B1: H22L16 (antibody, human IgG1, kappa, V domains shown)
VH: QVQLVQSGAEVKKPGASVKVSCKASGYTFTSYWMHWVKQRPGQGLEWIGNINPSNGGTNYNEKFKSKATMTRDTSTSTAYMELSSLRSEDTAVYYCELGQGYWGQGTLVTVSS
VL: DIVMTQSPLSNPVTLGQPVSISCRSSKSLLYKDGKTYLNWFLQRPGQSPQLLIYLMSTRASGVPDRFSGGGSGTDFTLKISRVEAEDVGVYYCQQLVEYPLTFGQGTKLEIKR
notes: human gamma1 mutated constant region, human kappa
Question: How did the Kd [1] turn out when B1 was run?
Answer: 1.32 nM

Question: What about the koff [1] of the same binder?
Answer: 0.00767 s⁻¹

Question: What about the kon [1] of the same binder?
Answer: 5.83e+06 M⁻¹ s⁻¹

Question: What about the Kd [2] of the same binder?
Answer: 1.33 nM

Question: What about the koff [2] of the same binder?
Answer: 0.00759 s⁻¹

Question: What about the kon [2] of the same binder?
Answer: 5.69e+06 M⁻¹ s⁻¹

Question: What about the Kd [3] of the same binder?
Answer: 1.47 nM

Question: And the koff [3]?
Answer: 0.0069 s⁻¹

Question: What about the kon [3] of the same binder?
Answer: 4.9e+06 M⁻¹ s⁻¹

Question: And the koff [4]?
Answer: 0.00778 s⁻¹

B2: H19Lc (antibody, human IgG1, kappa, V domains shown)
VH: QVQLVQSGAEVKKPGASVKVSCKASGYTFTSYWMHWVRQRPGQGLEWIGNINPSNGGTNYNEKFKSRATMTRDTSTSTAYMELSSLRSEDTAVYYCELGQGYWGQGTLVTVSS
VL: DIVITQDELSNPVTSGESVSISCRSSKSLLYKDGKTYLNWFLQRPGQSPQLLIYLMSTRASGVSDRFSGSGSGTDFTLEISRVKAEDVGVYYCQQLVEYPLTFGAGTKLELKR
Question: For B2, which koff [4] is on record?
Answer: 0.00595 s⁻¹

B3: H24Lc (antibody, human IgG1, kappa, V domains shown)
VH: QVQLVQSGAEVKKPGASVKVSCKASGYTFTSYWMHWVKQRPGQGLEWIGNINPSNGGTNYNEKFKSKATLTVDTSTSTAYMELSSLRSEDTAVYYCELGQGYWGQGTLVTVSS
VL: DIVITQDELSNPVTSGESVSISCRSSKSLLYKDGKTYLNWFLQRPGQSPQLLIYLMSTRASGVSDRFSGSGSGTDFTLEISRVKAEDVGVYYCQQLVEYPLTFGAGTKLELKR
Question: B3 was tested. Which koff [4] did it give?
Answer: 0.00383 s⁻¹

B4: H21Lc (antibody, human IgG1, kappa, V domains shown)
VH: QVQLVQSGAEVKKPGASVKVSCKASGYTFTSYWMHWVRQRPGQGLEWIGNINPSNGGTNYNEKFKSKATMTRDTSTSTAYMELSSLRSEDTAVYYCELGQGYWGQGTLVTVSS
VL: DIVITQDELSNPVTSGESVSISCRSSKSLLYKDGKTYLNWFLQRPGQSPQLLIYLMSTRASGVSDRFSGSGSGTDFTLEISRVKAEDVGVYYCQQLVEYPLTFGAGTKLELKR
Question: How did the koff [4] turn out when B4 was run?
Answer: 0.00569 s⁻¹

B5: H23Lc (antibody, human IgG1, kappa, V domains shown)
VH: QVQLVQSGAEVKKPGASVKVSCKASGYTFTSYWMHWVKQRPGQGLEWIGNINPSNGGTNYNEKFKSKATMTVDTSTSTAYMELSSLRSEDTAVYYCELGQGYWGQGTLVTVSS
VL: DIVITQDELSNPVTSGESVSISCRSSKSLLYKDGKTYLNWFLQRPGQSPQLLIYLMSTRASGVSDRFSGSGSGTDFTLEISRVKAEDVGVYYCQQLVEYPLTFGAGTKLELKR
Question: How did the koff [4] turn out when B5 was run?
Answer: 0.00342 s⁻¹

B6: H20Lc (antibody, human IgG1, kappa, V domains shown)
VH: QVQLVQSGAEVKKPGASVKVSCKASGYTFTSYWMHWVRQAPGQGLEWIGNINPSNGGTNYNEKFKSKATMTRDTSTSTAYMELSSLRSEDTAVYYCELGQGYWGQGTLVTVSS
VL: DIVITQDELSNPVTSGESVSISCRSSKSLLYKDGKTYLNWFLQRPGQSPQLLIYLMSTRASGVSDRFSGSGSGTDFTLEISRVKAEDVGVYYCQQLVEYPLTFGAGTKLELKR
Question: Which koff [4] does the source give for B6 here?
Answer: 0.00507 s⁻¹

B7: H23L16 (antibody, human IgG1, kappa, V domains shown)
VH: QVQLVQSGAEVKKPGASVKVSCKASGYTFTSYWMHWVKQRPGQGLEWIGNINPSNGGTNYNEKFKSKATMTVDTSTSTAYMELSSLRSEDTAVYYCELGQGYWGQGTLVTVSS
VL: DIVMTQSPLSNPVTLGQPVSISCRSSKSLLYKDGKTYLNWFLQRPGQSPQLLIYLMSTRASGVPDRFSGGGSGTDFTLKISRVEAEDVGVYYCQQLVEYPLTFGQGTKLEIKR
notes: as for B1
Question: How did the Kd [1] turn out when B7 was run?
Answer: 1.99 nM

Question: What about the koff [1] of the same binder?
Answer: 0.00587 s⁻¹

Question: What about the kon [1] of the same binder?
Answer: 2.95e+06 M⁻¹ s⁻¹

Question: What about the Kd [3] of the same binder?
Answer: 3.8 nM

Question: And the koff [3]?
Answer: 0.0064 s⁻¹

Question: What about the kon [3] of the same binder?
Answer: 1.9e+06 M⁻¹ s⁻¹

Question: What about the koff [4] of the same binder?
Answer: 0.00606 s⁻¹

B8: H16L18 (antibody, human IgG1, kappa, V domains shown)
VH: QVQLVQSGAEVKKPGASVKVSCKASGYTFTSYWMHWVKQRPGQGLEWIGNINPSNGGTNYNEKFKSKATLTVDKSTSTAYMELSSLRSEDTAVYYCELGQGYWGQGTLVTVSS
VL: DIVMTQDPLSNPVTLGQPVSISCRSSKSLLYKDGKTYLNWFLQRPGQSPQLLIYLMSTRASGVSDRFSGSGSGTDFTLKISRVEAEDVGVYYCQQLVEYPLTFGQGTKLEIKR
Question: Which koff [4] does the source give for B8 here?
Answer: 0.00566 s⁻¹

B9: H19L16 (antibody, human IgG1, kappa, V domains shown)
VH: QVQLVQSGAEVKKPGASVKVSCKASGYTFTSYWMHWVRQRPGQGLEWIGNINPSNGGTNYNEKFKSRATMTRDTSTSTAYMELSSLRSEDTAVYYCELGQGYWGQGTLVTVSS
VL: DIVMTQSPLSNPVTLGQPVSISCRSSKSLLYKDGKTYLNWFLQRPGQSPQLLIYLMSTRASGVPDRFSGGGSGTDFTLKISRVEAEDVGVYYCQQLVEYPLTFGQGTKLEIKR
Question: With B9 as the binder, how does the koff [4] read?
Answer: 0.00873 s⁻¹
